Data reported in paper PMC13577073, “Cryo-EM structure of the glycosylated protein CgeA in the crust of Bacillus subtilis endospores” (The Journal of Microbiology, 2025).
Positions count from the first letter of the chain named. Numbers in names are those of the source.

B1: CgeA protein from Bacillus subtilis, wild type (natural protein, B. subtilis, UniProt P42089 1-133, looked up)
chain: MSSENAQLKKDLIKAVLSPLFPTATEGGENMDSNLKALLDAAIDQKVDESETVTAESILDPSLPARWIFARITPGTTISIVTDSGDMIGPVVFVAFDQVHGIVFVTQESSVTPAGQATTLIDVDKVESVTFFS
notes: CgeA, spore crust protein of B. subtilis; synthesized cgeA gene subcloned into NcoI/XhoI of pProEx-Hta; also called CgeA (WT); wild-type CgeA; source: E. coli BL21 (DE3), purified (Ni-NTA, TEV cleavage, HiTrap Q, Superdex 200); not shown: His6, N-terminal, cleaved
B2: CgeA A42C/D97C variant (natural protein, B. subtilis, UniProt P42089 1-133, looked up)
chain: B1 chain with A42C, D97C
notes: CgeA of B. subtilis with two cysteine mutations, made from pProEx-Hta-CgeA (WT) by QuikChange; residues 62-109 and 115-133 are modelled in the cryo-EM structure; The cysteines were designed to form a disulfide bond, which could not be seen unambiguously in the map; also called CgeA A42C/D97C mutant; CgeA mutant; source: E. coli BL21 (DE3), purified (Ni-NTA, TEV cleavage, HiTrap Q, Superdex 200); …

Assays:
[1] = biological target: the molecule itself; experiment: SEC-MALS; Superdex 200 Increase 10/300 GL; 20 mM Tris-HCl (pH 8.0), 150 mM NaCl; DAWN HELIOS II
[2] = biological target: the molecule itself; experiment: SEC; wild type and A42C/D97C mutant compared; Superdex 200 column calibrated with reference proteins

Protein | stoichiometry N [1] | stoichiometry N [2]
B1 | 6 | –
B2 | – | 6
